Where two headings read alike, the source gives them in different places.
What was measured:
[1] = tested on: mannose 6-phosphate reductase (M6PR); test: M6PR activity assay (NADPH oxidation), specific activity of purified enzyme; type: biochemical, celery (Apium graveolens)
Protocol: Three putative M6PR and one non-positive clone (as determined by antibody screening) were tested for M6PR activity. Duplicate 10 ml cultures of each clone were grown in LB+ampicillin (amp; […]). Once an average OD600 of 0.5 had been attained one culture of each pair was induced by the addition of isopropyl-β-D-thiogalactopyranoside (IPTG; final concentration 10 mM). […] Cultures were maintained at 30° C. for a further 3 h and were harvested at an average OD600 of 1.29±0.02. Cells were pelleted by centrifugation (2000×g for 5 min) and washed twice by resuspending the pellets in 5 ml Tris (100 mM, pH 7.5) containing […], with a centrifugation step between each wash. After the final wash pelleted cells were maintained on ice. Just prior to disruption the cells were resuspended in 4 ml of extraction buffer (100 mM Tris-HCl pH 7.5, […], 10 mM DTT and 0.1% Triton X-100) and transferred to blood dilution vials (American Scientific Products, McGaw Park, Ill.). Cells were ruptured by suspending the vial containing the cells 0.5 cm above the cuphorn probe of a Heat Systems W-385 sonicator (Misonics Farmingdale, N.Y.) and subjecting them to 2 minutes sonication at full power. Coolant was circulated around the vial to maintain the temperature at approximately 4° C. After sonication, 1.5 ml aliquots of the homogenate were centrifuged at 13,000×g for 5 minutes at 4° C. […]

[2] = tested on: mannose 6-phosphate reductase (M6PR); test: Kinetic characterization of purified M6PR (mannose 6-phosphate and NADPH kinetics); type: biochemical, celery (Apium graveolens); settings: 30° C., 33 mM Tris-HCl pH 7.5, 3 mM DTT; for Km: read-out: km
Excerpt: Subsequent purification steps were essentially as described in Loescher et al., Plant Physiol. 98:1396-1402 (1992) except for Reactive Yellow 86 (RY86) chromatography. Here the active fraction from the gel filtration step was split in two, and each fraction run separately on the RY86 column as described in Loescher et al., Plant Physiol. 98:1396-1402 (1992). The active fractions were pooled and either diluted by the addition of 0.5 v of column buffer or desalted using centrifugal concentrating devices (30 kD cut-off membranes) and washed with 2 volumes of column buffer. This step was performed to dilute or remove NADPH. The sample was then loaded back onto the RY86 column and activity eluted in a linear gradient between 0 and 0.2 mM NADPH in column buffer. The purified M6PR was desalted and concentrated using centrifugal filtration and was either used immediately for kinetic characterization or stored at −21° C. after adding glycerol (1:1, v:v).

B1: Recombinant M6PR: mannose 6-phosphate reductase purified from IPTG-induced E. coli clone D carrying celery cDNA (SEQ ID NO:2) (protein)
chain: MAITLNSGFKMPVLGLGVWRMDRNEIKNLLLSAINLGYRHFDCAADYKNELEVGEAFKEAFDTDLVKREDLFITTKLWNSDHGHVIEACKNSLKKLQLEYLDLYLIHFPMASKHSGIGTTRSILDDEGVWEVDATISLEATWHEMEKLVEMGLVRSIGISNYDVYLTRDILSYSKIKPAVNQIETHPYFQRDSLIKFCQKYGIAITAHTPLGGALANTERFGSVSCLDDPVLKKLSDKHNKSPAQIVLRWGVQRNTIVIPKSSKTKRLEENINIFDFELSKEDMELIKTMERNQRSNTPAKAWGIDVYA
- average specific activity of the purified enzyme ([1]; average of three preparations, 1 mU = 1 nmol NADPH oxidized per minute): 3926±833 mU/mg protein
- specific activity of the purified enzyme ([1]; final two preparations): 4441±13 mU/mg
- Vmax; NADPH ([2]; 9 NADPH concentrations 1-50 μM, mannose 6-phosphate 12 mM): 6.0 ± 2.3 (2;3) μmol mg prot^−1 min^−1
- Km ([2]; 9 NADPH concentrations 1-50 μM, mannose 6-phosphate 12 mM, NADPH): 0.0062 ± 0.0024 mM
- Vmax; mannose 6-P ([2]; 12 M6P concentrations 1-50 mM, saturating NADPH 200 μM): 8.0 ± 1.9 (4;6) μmol mg prot^−1 min^−1
- Km ([2]; 12 M6P concentrations 1-50 mM, saturating NADPH 200 μM, mannose 6-P): 10.1 ± 1.4 mM

Source: patent US6495317B1, “DNA encodingmannose 6-phosphate reductase and recombinants produced therefrom” (Board of Trustees of Michigan State University, priority 1996, dated 2002)
